Holding throughout (experiment): cell-based or functional assay
Assay [1] deals with T1, PLCβ3 I1129E V1133E I1136E triple mutant (human, UniProt Q01970).
T1 chain: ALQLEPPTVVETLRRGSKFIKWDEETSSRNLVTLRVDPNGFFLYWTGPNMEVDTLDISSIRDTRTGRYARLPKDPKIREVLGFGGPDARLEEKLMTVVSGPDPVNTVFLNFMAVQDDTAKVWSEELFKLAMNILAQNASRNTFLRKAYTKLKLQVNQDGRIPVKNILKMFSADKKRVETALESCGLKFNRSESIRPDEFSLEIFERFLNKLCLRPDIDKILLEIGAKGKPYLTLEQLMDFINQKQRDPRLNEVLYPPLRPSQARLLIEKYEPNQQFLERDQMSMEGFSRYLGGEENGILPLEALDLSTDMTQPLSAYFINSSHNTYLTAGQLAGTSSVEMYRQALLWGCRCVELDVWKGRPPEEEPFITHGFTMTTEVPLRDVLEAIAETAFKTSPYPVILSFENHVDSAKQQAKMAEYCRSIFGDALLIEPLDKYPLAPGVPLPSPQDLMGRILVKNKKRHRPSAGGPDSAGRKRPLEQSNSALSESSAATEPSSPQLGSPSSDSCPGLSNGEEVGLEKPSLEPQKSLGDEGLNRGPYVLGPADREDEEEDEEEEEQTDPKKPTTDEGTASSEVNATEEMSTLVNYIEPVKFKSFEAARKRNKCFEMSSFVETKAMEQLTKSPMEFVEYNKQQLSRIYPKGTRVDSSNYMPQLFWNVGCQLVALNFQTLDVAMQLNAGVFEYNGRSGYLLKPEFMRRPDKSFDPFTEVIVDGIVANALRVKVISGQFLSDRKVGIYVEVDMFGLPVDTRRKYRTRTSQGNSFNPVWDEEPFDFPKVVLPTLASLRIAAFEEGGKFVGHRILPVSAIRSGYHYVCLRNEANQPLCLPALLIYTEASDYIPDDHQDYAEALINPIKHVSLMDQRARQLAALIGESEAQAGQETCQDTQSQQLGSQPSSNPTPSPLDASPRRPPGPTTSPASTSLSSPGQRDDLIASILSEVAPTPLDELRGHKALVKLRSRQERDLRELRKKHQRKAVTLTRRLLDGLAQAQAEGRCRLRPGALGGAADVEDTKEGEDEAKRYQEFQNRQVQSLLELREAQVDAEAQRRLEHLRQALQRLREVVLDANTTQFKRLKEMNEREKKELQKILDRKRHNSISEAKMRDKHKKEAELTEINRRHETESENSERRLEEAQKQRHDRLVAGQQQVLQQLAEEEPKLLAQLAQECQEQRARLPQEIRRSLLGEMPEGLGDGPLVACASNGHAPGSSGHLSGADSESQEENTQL

Assay [2] deals with T2, human PLCβ3 (residues 10–1234) (human, UniProt Q01970 10-1234).
T2 sequence: T1 chain with E1120I, E1124V, E1127I

Assay [3] concerns the target PLCβ3 L876A (human, UniProt Q01970 10-1234, L876A).

Substitutions are numbered along the chain they refer to.

Here are results for one molecule from PMC3594540 (Nature structural & molecular biology, 2013).

B1: murine Gαq (residues 7–359), biotinylated for bead binding (natural protein)
chain: MACCLSEEAKEARRINDEIERQLRRDKRDARRELKLLLLGTGESGKSTFIKQMRIIHGSGYSDEDKRGFTKLVYQNIFTAMQAMIRAMDTLKIPYKYEHNKAHAQLVREVDVEKVSAFENPYVDAIKSLWNDPGIQECYDRRREYQLSDSTKYYLNDLDRVADPSYLPTQQDVLRVRVPTTGIIEYPFDLQSVIFRMVDVGGQRSERRKWIHCFENVTSIMFLVALSEYDQVLVESDNENRMEESKALFRTIITYPWFQNSSVILFLNKKDLLEEKIMYSHLVDYFPEYDGPQRDAQAAREFILKMFVDLNPDSDKIIYSHFTCATDTENIRFVFAAVKDTILQLNLKEYNLV
Take B1: the “EC50 of Gαq-stimulated PIP2 hydrolysis ([3H]-IP3 release from liposomes)” value came out at 280 nM in assay [1], 120 nM in assay [2] and 19 nM in assay [3]. The “Max specific activity of Gαq-stimulated PIP2 hydrolysis (liposomes)” value in assay [1] was determined as 1900 nmol IP3/min/nmol PLCβ3; in assay [2], 2900 nmol IP3/min/nmol PLCβ3; in assay [3], 6500 nmol IP3/min/nmol PLCβ3.
